These results are taken from patent US20110195083A1.

Common to all, as to test: cell-based or functional assay
For assay [1], the target named is HIV-1 BX08 envelope protein (Env) on pseudovirus (HIV-1 strain BX08).
For assay [2], the target named is HIV-1 6535 envelope protein (Env) on pseudovirus (HIV-1 strain 6535).
For assay [3], the target named is HIV-1 BaL envelope protein (Env) on pseudovirus (HIV-1 strain Bal).

In the case of CD4-mimic peptide CD4M33, in assay [1], the neutralization IC50, CD4M33 alone amounted to 0.173 µg/mL; the neutralization IC50, CD4M33 concentration in combination with serum B714 turned out to be 0.036 µg/mL; the neutralization IC50, CD4M33 concentration in combination with serum B716 was determined as 0.036 µg/mL; the neutralization IC50, CD4M33 concentration in combination with serum B718 was found to be 0.028 µg/mL. In assay [1], the neutralization IC50, CD4M33 concentration in combination with serum B720 was 0.014 µg/mL. Moreover, in assay [2], the neutralization IC50, CD4M33 alone was determined as 0.721 µg/mL; the neutralization IC50, CD4M33 concentration in combination with serum B714 came to 0.431 µg/mL; the neutralization IC50, CD4M33 concentration in combination with serum B716 came to 0.431 µg/mL; the neutralization IC50, CD4M33 concentration in combination with serum B718 amounted to 0.481 µg/mL. For the same substance, the neutralization IC50, CD4M33 concentration in combination with serum B720 in assay [2] was 0.189 µg/mL. Moreover, in assay [3], the neutralization IC50, CD4M33 alone is more than 0.25 µg/mL; the neutralization IC50, CD4M33 concentration in combination with serum B714 was found to be 0.048 µg/mL; the neutralization IC50, CD4M33 concentration in combination with serum B716 turned out to be 0.057 µg/mL; the neutralization IC50, CD4M33 concentration in combination with serum B718 came out at 0.045 µg/mL. Further, in assay [3], the neutralization IC50, CD4M33 concentration in combination with serum B720 is 0.017 µg/mL.
